± gives the standard deviation of the averaged measurements.
B1: library; a variant is named by its letters at N, in order (parent)
chain: GCUGUCACCGAGAAACUGUGAAGUAUAUCUUAAACCUGGGCACUUAAAAGAUAUAUGGAGUUAGUAGUGCAACCUGCUCGGUCUGAUGAGUCCNNNNNNGGACGAAACAGC

Assays:
cyclic di-GMP [1] = variants of: B1; assay: normalized RNA/DNA level without ligand (relative to sTRSVctl = 100) (log10 (% of sTRSVctl)); HEK293T; ligand: cyclic di-GMP (c-di-GMP-II aptamer); higher = less ribozyme self-cleavage, higher mRNA level; details: reporter: mCherry (pCS4076), ligand present: no
Outline: (§1)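 Total RNA, extracted with EDTA 72 h after HEK293T cells were transfected with 4 µg per 6-well well of reporter-linked ribozyme switch library plasmids, was reverse-transcribed, amplified, barcoded and sequenced. Ligand, if used, was added 1 h before transfection. RNA level was derived from RNA reads divided by DNA reads and normalized to a spiked-in non-cleaving sequence or to the top sequences. This was multiplied by 100 and log10-transformed, with the top set of 25 sequences and a ≥100 DNA read minimum.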

cyclic di-GMP [2] = variants of: B1; assay: normalized RNA/DNA level with ligand (relative to sTRSVctl = 100) (log10 (% of sTRSVctl)); HEK293T; ligand: cyclic di-GMP (c-di-GMP-II aptamer); ligand concentration (+) RNA-Seq: 1 mM; higher = less ribozyme self-cleavage, higher mRNA level; details: reporter: mCherry (pCS4076), ligand present: yes
Outline: as §1

Variant | normalized RNA/DNA level without ligand (log10) (cyclic di-GMP [1]) | normalized RNA/DNA level with ligand (log10) (cyclic di-GMP [2])
CUACAU | 1.57 ± 0.047 | 1.72 ± 0.13
UUUGGG | 1.735 ± 0.0076 | 1.85 ± 0.074
UAGUUA | 1.67 ± 0.025 | 1.83 ± 0.13
UUGCCC | 1.83 ± 0.081 | 1.84 ± 0.2
ACGUAC | 1.58 ± 0.053 | 1.78 ± 0.077
CUCCUU | 1.61 ± 0.071 | 1.79 ± 0.051
AGCGAU | 1.71 ± 0.015 | 1.87 ± 0.1
AAAAAU | 1.547 ± 0.0027 | 1.72 ± 0.13
GAGGAU | 1.66 ± 0.022 | 1.77 ± 0.13
AUCACC | 1.77 ± 0.035 | 1.87 ± 0.068
AGCCCA | 1.84 ± 0.046 | 1.92 ± 0.11
GGCACG | 1.76 ± 0.026 | 1.88 ± 0.039
UCUCUG | 1.718 ± 0.015 | 1.87 ± 0.14
GUAGCG | 1.81 ± 0.022 | 1.88 ± 0.059
GUCUAC | 1.739 ± 0.0096 | 1.89 ± 0.14
GUCUAG | 1.62 ± 0.066 | 1.79 ± 0.072
CGCCGC | 1.8 ± 0.068 | 1.91 ± 0.11
AGUCGC | 1.731 ± 0.0037 | 1.85 ± 0.12
GUAAUU | 1.689 ± 0.016 | 1.78 ± 0.054
UAAGAC | 1.647 ± 0.0022 | 1.82 ± 0.13
UAAGAU | 1.597 ± 0.0022 | 1.79 ± 0.13
UACAGG | 1.65 ± 0.044 | 1.82 ± 0.081
AUCUCU | 1.669 ± 0.0069 | 1.86 ± 0.042
UUAAUU | 1.76 ± 0.072 | 1.88 ± 0.12

Variant | normalized RNA/DNA level without ligand (log10) (cyclic di-GMP [1]) | normalized RNA/DNA level with ligand (log10) (cyclic di-GMP [2])
GGCAGG | 1.82 ± 0.022 | 1.83 ± 0.042
CUUUUA | 1.42 ± 0.12 | 1.66 ± 0.07
AGCAAC | 1.65 ± 0.032 | 1.77 ± 0.092
CGCCCA | 1.84 ± 0.069 | 1.91 ± 0.11
CGCCCG | 1.756 ± 0.0093 | 1.87 ± 0.14
CUACUG | 1.64 ± 0.025 | 1.83 ± 0.078
CAUUUG | 1.75 ± 0.062 | 1.91 ± 0.095
ACAGCC | 1.66 ± 0.027 | 1.84 ± 0.1
AGGUAG | 1.54 ± 0.034 | 1.66 ± 0.046
GGCAUC | 1.65 ± 0.023 | 1.81 ± 0.087
GGAUGC | 1.7 ± 0.079 | 1.83 ± 0.067
GACUGG | 1.68 ± 0.074 | 1.78 ± 0.1
CGGAGG | 1.623 ± 0.014 | 1.82 ± 0.12
CUGAAC | 1.603 ± 0.0055 | 1.77 ± 0.084
UGUUUA | 1.744 ± 0.0073 | 1.89 ± 0.072
UGUUUC | 1.812 ± 0.0031 | 1.92 ± 0.08
CGGUUG | 1.68 ± 0.14 | 1.812 ± 0.013
GGUAAU | 1.61 ± 0.039 | 1.72 ± 0.037
AAGUCG | 1.62 ± 0.031 | 1.79 ± 0.089
CUAACC | 1.8 ± 0.038 | 1.84 ± 0.12
CUAACG | 1.77 ± 0.031 | 1.85 ± 0.15
GCUUUC | 1.58 ± 0.022 | 1.75 ± 0.11
AUUUCA | 1.701 ± 0.013 | 1.85 ± 0.12
AUUUCC | 1.79 ± 0.019 | 1.9 ± 0.092

Variant | normalized RNA/DNA level without ligand (log10) (cyclic di-GMP [1]) | normalized RNA/DNA level with ligand (log10) (cyclic di-GMP [2])
UGGCGC | 1.818 ± 0.018 | 1.9 ± 0.14
GAAACU | 1.63 ± 0.035 | 1.79 ± 0.1
AGUAUG | 1.54 ± 0.085 | 1.75 ± 0.087
GGCGGC | 1.71 ± 0.021 | 1.89 ± 0.13
CCGUAG | 1.32 ± 0.11 | 1.55 ± 0.14
CCGGGU | 1.69 ± 0.066 | 1.81 ± 0.15
GGAAAA | 1.3 ± 0.025 | 1.49 ± 0.12
GUCAGA | 1.56 ± 0.057 | 1.76 ± 0.076
CAUUCG | 1.83 ± 0.091 | 1.95 ± 0.14
AUAUAA | 1.5 ± 0.042 | 1.67 ± 0.13
AGCAGU | 1.689 ± 0.0032 | 1.84 ± 0.13
GCAGAC | 1.42 ± 0.068 | 1.59 ± 0.079
GUCUGC | 1.732 ± 0.012 | 1.87 ± 0.12
GAAGGG | 1.53 ± 0.048 | 1.69 ± 0.079
CCCACA | 1.57 ± 0.098 | 1.74 ± 0.05
AAACCU | 1.72 ± 0.018 | 1.84 ± 0.097
CUAGGG | 1.62 ± 0.022 | 1.78 ± 0.12
GUUCGG | 1.71 ± 0.018 | 1.84 ± 0.12
CUUACU | 1.59 ± 0.079 | 1.79 ± 0.048
AAGUGA | 1.38 ± 0.19 | 1.5546 ± 0.00035
UUGCGC | 1.74 ± 0.027 | 1.83 ± 0.072
UCGCAG | 1.762 ± 0.0034 | 1.87 ± 0.13
UAGGAG | 1.59 ± 0.05 | 1.76 ± 0.13
CAUCAU | 1.56 ± 0.064 | 1.72 ± 0.072

Variant | normalized RNA/DNA level without ligand (log10) (cyclic di-GMP [1]) | normalized RNA/DNA level with ligand (log10) (cyclic di-GMP [2])
CAUUGA | 1.602 ± 0.0057 | 1.76 ± 0.13
AUCGUA | 1.511 ± 0.0037 | 1.72 ± 0.16
UGGUAA | 1.56 ± 0.095 | 1.79 ± 0.096
CGAGUA | 1.7354 ± 0.0011 | 1.79 ± 0.11
UAUUCA | 1.8 ± 0.032 | 1.88 ± 0.053
UAUUCC | 1.77 ± 0.029 | 1.88 ± 0.12
UUCACC | 1.778 ± 0.0039 | 1.89 ± 0.078
CGUACC | 1.74 ± 0.039 | 1.89 ± 0.09
GGUGGA | 1.55 ± 0.11 | 1.7 ± 0.065
CGAAGU | 1.676 ± 0.0054 | 1.84 ± 0.16
CUAAGG | 1.748 ± 0.0049 | 1.8 ± 0.064
UAUCCA | 1.77 ± 0.062 | 1.86 ± 0.097
GGUUCA | 1.6 ± 0.043 | 1.73 ± 0.12
AGUUGU | 1.66 ± 0.048 | 1.85 ± 0.11
GCCGGA | 1.55 ± 0.041 | 1.7 ± 0.11
AUGAUC | 1.65 ± 0.049 | 1.82 ± 0.087
ACACUG | 1.48 ± 0.04 | 1.68 ± 0.077
CUUGUU | 1.72 ± 0.07 | 1.85 ± 0.12
ACGCUG | 1.62 ± 0.039 | 1.79 ± 0.089
UCUCGC | 1.808 ± 0.017 | 1.88 ± 0.098
UCUCGG | 1.9 ± 0.063 | 1.96 ± 0.13
UACGUC | 1.69 ± 0.06 | 1.81 ± 0.13
UGUUAU | 1.6763 ± 0.0012 | 1.84 ± 0.14
UUUGAA | 1.59 ± 0.017 | 1.76 ± 0.1

Variant | normalized RNA/DNA level without ligand (log10) (cyclic di-GMP [1]) | normalized RNA/DNA level with ligand (log10) (cyclic di-GMP [2])
CCAACG | 1.71 ± 0.049 | 1.85 ± 0.1
AAGCUU | 1.7 ± 0.022 | 1.84 ± 0.073
UUUUCC | 1.84 ± 0.058 | 1.89 ± 0.16
AUACUA | 1.597 ± 0.0074 | 1.78 ± 0.18
UUGAAU | 1.661 ± 0.0028 | 1.83 ± 0.095
AACUAU | 1.662 ± 0.014 | 1.79 ± 0.11
GCCUAA | 1.59 ± 0.071 | 1.78 ± 0.055
CUUGGU | 1.76 ± 0.031 | 1.84 ± 0.11
GAAUAU | 1.59 ± 0.039 | 1.79 ± 0.077
GUCCGG | 1.84 ± 0.12 | 1.96 ± 0.11
AACCCG | 1.665 ± 0.014 | 1.81 ± 0.06
UAAUAA | 1.66 ± 0.018 | 1.8 ± 0.085
CGAACC | 1.679 ± 0.01 | 1.8 ± 0.098
CUUAGU | 1.78 ± 0.051 | 1.88 ± 0.058
CGCGGU | 1.67 ± 0.02 | 1.87 ± 0.13
GGUUUU | 1.7 ± 0.015 | 1.84 ± 0.077
UAGGUA | 1.55 ± 0.018 | 1.72 ± 0.05
CGGGGG | 1.62 ± 0.059 | 1.77 ± 0.026
GGCUCC | 1.88 ± 0.022 | 1.96 ± 0.11
GGCCAC | 1.7289 ± 0.0006 | 1.88 ± 0.083
